Measured values taken from patent US20240409645A1 (DUALYX, published 2024).

T1: human IL-2 receptor (IL-2Rα/IL-2Rβ/γc) (human, UniProt P01589 22-272; P14784 27-551; P31785 23-369)
T1 sequence 1: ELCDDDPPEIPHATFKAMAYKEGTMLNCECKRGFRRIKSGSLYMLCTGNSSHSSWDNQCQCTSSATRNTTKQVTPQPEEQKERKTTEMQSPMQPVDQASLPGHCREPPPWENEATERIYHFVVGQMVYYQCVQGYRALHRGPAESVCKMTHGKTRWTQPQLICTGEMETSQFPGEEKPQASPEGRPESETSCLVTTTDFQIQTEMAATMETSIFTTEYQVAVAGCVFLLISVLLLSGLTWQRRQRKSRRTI
T1 sequence 2: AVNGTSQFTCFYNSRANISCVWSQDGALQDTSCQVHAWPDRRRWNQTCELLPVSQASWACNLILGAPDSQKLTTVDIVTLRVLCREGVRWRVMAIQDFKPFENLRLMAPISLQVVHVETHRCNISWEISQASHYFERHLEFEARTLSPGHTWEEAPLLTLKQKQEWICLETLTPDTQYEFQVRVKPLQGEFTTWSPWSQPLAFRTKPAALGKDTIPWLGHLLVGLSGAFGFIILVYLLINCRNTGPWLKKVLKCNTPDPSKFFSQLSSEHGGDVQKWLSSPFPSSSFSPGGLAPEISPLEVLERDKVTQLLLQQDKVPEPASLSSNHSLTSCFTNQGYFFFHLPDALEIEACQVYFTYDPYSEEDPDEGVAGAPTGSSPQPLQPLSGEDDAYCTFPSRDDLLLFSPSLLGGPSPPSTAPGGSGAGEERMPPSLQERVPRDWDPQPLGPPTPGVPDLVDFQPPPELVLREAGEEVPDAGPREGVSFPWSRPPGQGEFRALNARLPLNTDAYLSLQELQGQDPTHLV
T1 sequence 3: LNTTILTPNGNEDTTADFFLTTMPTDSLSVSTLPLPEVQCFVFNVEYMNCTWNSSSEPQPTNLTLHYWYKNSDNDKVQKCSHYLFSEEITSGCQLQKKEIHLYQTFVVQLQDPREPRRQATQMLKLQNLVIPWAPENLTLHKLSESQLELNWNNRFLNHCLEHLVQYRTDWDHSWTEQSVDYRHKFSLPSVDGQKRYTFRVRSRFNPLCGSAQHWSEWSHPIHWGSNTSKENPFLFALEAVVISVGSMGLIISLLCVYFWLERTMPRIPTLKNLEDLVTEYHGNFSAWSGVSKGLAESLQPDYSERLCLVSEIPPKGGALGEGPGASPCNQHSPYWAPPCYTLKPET


Target: T1, human IL-2 receptor (IL-2Rα/IL-2Rβ/γc)
Assay: cell-based or functional assay

Binder | EC50 (nM) pSTAT5, NK, human PBMCs [nM] | EC50 (nM) pSTAT5, Treg, human PBMCs | Fold Max signal (% pSTAT5+) Treg/NK [fold] | Max signal (% pSTAT5+), NK [% pSTAT5+] | Max signal (% pSTAT5+), Treg [% pSTAT5+] | fold EC50 NK/Treg [fold]
DC00081 (other) chain 1: QVQLVESGGGLVQAGGSLRLSCAASGGTFRTRNMGWFRRAPGKEREFVAAVSWNVDNKLYADSVKGRFTISRDNGRNMVYLQMNSLKPEDTAVYYCAADNIPLSSDMRPTATEYDYWGQGTQVTVSSDKTHTCPPCPAPEAAGGPSVFLFPPKPKDTLMISRTPEVTCVVVDVSHEDPEVKFNWYVDGVEVHNAKTKPREEQYNSTYRVVSVLTVLHQDWLNGKEYKCKVSNKALGAPIEKTISKAKGQPREPQVYTLPPSRDELTKNQVSLTCLVKGFYPSDIAVEWESNGQPENNYKTTPPVLDSDGSFLLYSKLTVDKSRWQQGNVFSCSVMHEALHNHYTQKSLSLSPGK chain 2: QVQLVESGGGLVQPGGSLRLSCATSGFTFRNNFMSWVRQAPGKGLEWVSTISYGGESTTYAESVKGRFTISRDNAKNTLYLQMNNLKPEDTAVYYCAKATSYDSIRSGSRGQGTQVTVSSGGGGSGGGGSGGGGSQVQLVESGGGLVQAGGSLTLSCAAPGRTFGTDVVGWFRQAPGKEREFVASISRSGDGIYYDDSVKGRFTISRNNAWNTVNLQMNSLKVEDTAVYYCAAGDGWSTYDYWGQGTQVTVSSGGGGSGGGGSGGGGSEVQLVESGGGLVQTGGSLRLSCAASGGTFSRDAMAWFRQVPGKEREFVALISWSGATTNYADSVKGRFAISRDNGKNTVYLQMNRLKPADTAIYYCAADRRPMGSRSYFEPTEYDDWGQGTQVTVSSGGGGSGGGGSGGGGSDKTHTCPPCPAPEAAGGPSVFLFPPKPKDTLMISRTPEVTCVVVDVSHEDPEVKFNWYVDGVEVHNAKTKPREEQYNSTYRVVSVLTVLHQDWLNGKEYKCKVSNKALGAPIEKTISKAKGQPREPQVYTLPPSRDELTKNQVSLTCLVKGFYPSDIAVEWESNGQPENNYKTTPPVLDSDGSFFLYSRLTVDKSRWQQGNVFSCSVMHEALHNHYTQKSLSLSPGK | 0.194 | < 0.1 pM | 5 | 13.5 | 60.9 | > 1940
DC00082 (other) chain 1: QVQLVESGGGLVQAGGSLRLSCAASGGTFRTRNMGWFRRAPGKEREFVAAVSWNVDNKLYADSVKGRFTISRDNGRNMVYLQMNSLKPEDTAVYYCAADNIPLSSDMRPTATEYDYWGQGTQVTVSSDKTHTCPPCPAPEAAGGPSVFLFPPKPKDTLMISRTPEVTCVVVDVSHEDPEVKFNWYVDGVEVHNAKTKPREEQYNSTYRVVSVLTVLHQDWLNGKEYKCKVSNKALGAPIEKTISKAKGQPREPQVYTLPPSRDELTKNQVSLTCLVKGFYPSDIAVEWESNGQPENNYKTTPPVLDSDGSFLLYSKLTVDKSRWQQGNVFSCSVMHEALHNHYTQKSLSLSPGK chain 2: QVQLVESGGGLVQPGGSLRLSCATSGFTFRNNFMSWVRQAPGKGLEWVSTISYGGESTTYAESVKGRFTISRDNAKNTLYLQMNNLKPEDTAVYYCAKATSYDSIRSGSRGQGTQVTVSSGGGGSGGGGSGGGGSEVQLVESGGGLVQTGGSLRLSCAASGGTFSRDAMAWFRQVPGKEREFVALISWSGATTNYADSVKGRFAISRDNGKNTVYLQMNRLKPADTAIYYCAADRRPMGSRSYFEPTEYDDWGQGTQVTVSSGGGGSGGGGSGGGGSQVQLVESGGGLVQAGGSLTLSCAAPGRTFGTDVVGWFRQAPGKEREFVASISRSGDGIYYDDSVKGRFTISRNNAWNTVNLQMNSLKVEDTAVYYCAAGDGWSTYDYWGQGTQVTVSSGGGGSGGGGSGGGGSDKTHTCPPCPAPEAAGGPSVFLFPPKPKDTLMISRTPEVTCVVVDVSHEDPEVKFNWYVDGVEVHNAKTKPREEQYNSTYRVVSVLTVLHQDWLNGKEYKCKVSNKALGAPIEKTISKAKGQPREPQVYTLPPSRDELTKNQVSLTCLVKGFYPSDIAVEWESNGQPENNYKTTPPVLDSDGSFFLYSRLTVDKSRWQQGNVFSCSVMHEALHNHYTQKSLSLSPGK | 0.0227 | 0.848 pM | 2 | 2.11 | 4.57 | 27

Results, then the binder that gave them:

EC50 (nM) pSTAT5, NK, human PBMCs [nM] | EC50 (nM) pSTAT5, Treg, human PBMCs | Fold Max signal (% pSTAT5+) Treg/NK [fold] | Max signal (% pSTAT5+), NK [% pSTAT5+] | Max signal (% pSTAT5+), Treg [% pSTAT5+] | fold EC50 NK/Treg [fold] | Binder
0.496 | < 0.1 pM | 5 | 13 | 64.1 | > 4960 | DC00083 (other) chain 1: QVQLVESGGGLVQAGGSLRLSCAASGGTFRTRNMGWFRRAPGKEREFVAAVSWNVDNKLYADSVKGRFTISRDNGRNMVYLQMNSLKPEDTAVYYCAADNIPLSSDMRPTATEYDYWGQGTQVTVSSDKTHTCPPCPAPEAAGGPSVFLFPPKPKDTLMISRTPEVTCVVVDVSHEDPEVKFNWYVDGVEVHNAKTKPREEQYNSTYRVVSVLTVLHQDWLNGKEYKCKVSNKALGAPIEKTISKAKGQPREPQVYTLPPSRDELTKNQVSLTCLVKGFYPSDIAVEWESNGQPENNYKTTPPVLDSDGSFLLYSKLTVDKSRWQQGNVFSCSVMHEALHNHYTQKSLSLSPGK chain 2: QVQLVESGGGLVQAGGSLTLSCAAPGRTFGTDVVGWFRQAPGKEREFVASISRSGDGIYYDDSVKGRFTISRNNAWNTVNLQMNSLKVEDTAVYYCAAGDGWSTYDYWGQGTQVTVSSGGGGSGGGGSGGGGSEVQLVESGGGLVQTGGSLRLSCAASGGTFSRDAMAWFRQVPGKEREFVALISWSGATTNYADSVKGRFAISRDNGKNTVYLQMNRLKPADTAIYYCAADRRPMGSRSYFEPTEYDDWGQGTQVTVSSGGGGSGGGGSGGGGSQVQLVESGGGLVQPGGSLRLSCATSGFTFRNNFMSWVRQAPGKGLEWVSTISYGGESTTYAESVKGRFTISRDNAKNTLYLQMNNLKPEDTAVYYCAKATSYDSIRSGSRGQGTQVTVSSDKTHTCPPCPAPEAAGGPSVFLFPPKPKDTLMISRTPEVTCVVVDVSHEDPEVKFNWYVDGVEVHNAKTKPREEQYNSTYRVVSVLTVLHQDWLNGKEYKCKVSNKALGAPIEKTISKAKGQPREPQVYTLPPSRDELTKNQVSLTCLVKGFYPSDIAVEWESNGQPENNYKTTPPVLDSDGSFFLYSRLTVDKSRWQQGNVFSCSVMHEALHNHYTQKSLSLSPGK
0.663 | 0.0313 nM | 4 | 2.19 | 8.49 | 21 | DC00085 (other) chain 1: EVQLVESGGGLVQAGGSLRLSCAASGGSIYTYNMGWFRQAPGKEREFVAGTLWSGGDSVYADFAKGRFTLSRENAKNTLYLQMNSLKPEDTATYYCAIDPLSLTSDWRVDELSSWGKGTLVTVSSDKTHTCPPCPAPEAAGGPSVFLFPPKPKDTLMISRTPEVTCVVVDVSHEDPEVKFNWYVDGVEVHNAKTKPREEQYNSTYRVVSVLTVLHQDWLNGKEYKCKVSNKALGAPIEKTISKAKGQPREPQVYTLPPSRDELTKNQVSLTCLVKGFYPSDIAVEWESNGQPENNYKTTPPVLDSDGSFLLYSKLTVDKSRWQQGNVFSCSVMHEALHNHYTQKSLSLSPGK chain 2: EVQLVESGGGLVQTGGSLRLSCAASGGTFSRDAMAWFRQVPGKEREFVALISWSGATTNYADSVKGRFAISRDNGKNTVYLQMNRLKPADTAIYYCAADRRPMGSRSYFEPTEYDDWGQGTQVTVSSGGGGSGGGGSGGGGSQVQLVESGGGLVQPGGSLRLSCATSGFTFRNNFMSWVRQAPGKGLEWVSTISYGGESTTYAESVKGRFTISRDNAKNTLYLQMNNLKPEDTAVYYCAKATSYDSIRSGSRGQGTQVTVSSGGGGSGGGGSGGGGSQVQLVESGGGLVQAGGSLTLSCAAPGRTFGTDVVGWFRQAPGKEREFVASISRSGDGIYYDDSVKGRFTISRNNAWNTVNLQMNSLKVEDTAVYYCAAGDGWSTYDYWGQGTQVTVSSGGGGSGGGGSGGGGSDKTHTCPPCPAPEAAGGPSVFLFPPKPKDTLMISRTPEVTCVVVDVSHEDPEVKFNWYVDGVEVHNAKTKPREEQYNSTYRVVSVLTVLHQDWLNGKEYKCKVSNKALGAPIEKTISKAKGQPREPQVYTLPPSRDELTKNQVSLTCLVKGFYPSDIAVEWESNGQPENNYKTTPPVLDSDGSFFLYSRLTVDKSRWQQGNVFSCSVMHEALHNHYTQKSLSLSPGK
